Measured values as given in US20140378372A1 (SERPIN PHARMA, published 2014).

Biological target: hERG (channel tested in the hERG FastPatch assay) (UniProt Q12809 1-1159)
Test: cell-based or functional assay

Sequence of hERG (channel tested in the hERG FastPatch assay) (Q12809 whole entry): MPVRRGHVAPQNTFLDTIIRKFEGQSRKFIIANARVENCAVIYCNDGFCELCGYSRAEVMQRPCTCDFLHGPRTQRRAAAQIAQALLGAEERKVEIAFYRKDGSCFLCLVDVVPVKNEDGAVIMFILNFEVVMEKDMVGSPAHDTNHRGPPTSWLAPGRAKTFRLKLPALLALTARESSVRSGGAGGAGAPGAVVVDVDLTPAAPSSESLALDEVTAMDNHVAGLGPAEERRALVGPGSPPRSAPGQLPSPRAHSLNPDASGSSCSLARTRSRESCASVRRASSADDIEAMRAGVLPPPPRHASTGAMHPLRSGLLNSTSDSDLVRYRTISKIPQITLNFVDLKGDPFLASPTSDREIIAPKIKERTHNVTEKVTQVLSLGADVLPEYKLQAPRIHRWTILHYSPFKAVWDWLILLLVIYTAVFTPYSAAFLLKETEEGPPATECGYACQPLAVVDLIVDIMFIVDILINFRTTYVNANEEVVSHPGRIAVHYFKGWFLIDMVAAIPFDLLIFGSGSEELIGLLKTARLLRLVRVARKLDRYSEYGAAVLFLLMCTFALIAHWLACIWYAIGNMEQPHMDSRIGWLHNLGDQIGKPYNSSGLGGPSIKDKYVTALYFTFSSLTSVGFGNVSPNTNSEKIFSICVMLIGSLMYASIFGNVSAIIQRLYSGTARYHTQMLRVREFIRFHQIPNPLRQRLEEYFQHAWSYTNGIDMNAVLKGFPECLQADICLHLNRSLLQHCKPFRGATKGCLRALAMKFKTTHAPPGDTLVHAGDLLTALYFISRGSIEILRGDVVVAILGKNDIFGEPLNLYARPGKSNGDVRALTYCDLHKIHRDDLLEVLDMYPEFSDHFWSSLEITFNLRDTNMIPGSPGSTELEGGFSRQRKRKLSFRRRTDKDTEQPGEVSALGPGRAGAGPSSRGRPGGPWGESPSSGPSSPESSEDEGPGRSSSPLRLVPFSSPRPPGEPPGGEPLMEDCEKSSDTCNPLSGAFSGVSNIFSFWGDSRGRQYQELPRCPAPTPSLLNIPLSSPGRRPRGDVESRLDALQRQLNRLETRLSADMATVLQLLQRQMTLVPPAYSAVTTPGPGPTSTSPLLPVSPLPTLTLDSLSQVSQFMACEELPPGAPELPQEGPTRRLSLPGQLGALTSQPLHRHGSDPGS

In the case of VKFNKPFVFLMIEQNTK [SP16 peptide (C36 Core sequence, long; derived from human alpha-1-antitrypsin)], the “IC50 value (hERG FastPatch assay, test conc 0.008-25 uM)” value is reported as > 25 µM.
